Laboratory results from article PMC2652481.

Molecular target: TAF-4 (UniProt O61707)
Assay: membrane recruitment of GFP::TAF-4 by Myr::FLAG::OMA-1-FL
Settings: sites T239

Substance | other: percent of cells with membrane GFP::TAF-4 (reference: kinase-dead MBK-2 (Y237A) coexpressed) | other: percent of cells with membrane GFP::TAF-4 (reference: no MBK-2 coexpressed) | other: percent of cells with membrane GFP::TAF-4 (reference: wild type OMA-1-FL with MBK-2)
OMA-1 (from UniProt G5EC86) MBK-2 coexpressed | stronger; reference 16 | stronger; reference 8 | 
OMA-1 (from UniProt G5EC86) T239A with MBK-2 |  |  | weaker; reference 48
